Test results as given in IntAct's records for PubMed 12826668.

B1: Disabled homolog 1 (Mus musculus), P97318 (parent)
chain: MSTETELQVAVKTSAKKDSRKKGQDRSEATLIKRFKGEGVRYKAKLIGIDEVSAARGDKLCQDSMMKLKGVVAGARSKGEHKQKIFLTISFGGIKIFDEKTGALQHHHAVHEISYIAKDITDHRAFGYVCGKEGNHRFVAIKTAQAAEPVILDLRDLFQLIYELKQREELEKKAQKDKQCEQAVYQTILEEDVEDPVYQYIVFEAGHEPIRDPETEENIYQVPTSQKKEGVYDVPKSQPNSQPLEDFESRFAAATPNRNLSMDFDELLEATKVSAVTQLELFGDMSTPPDITSPPTPATPGDAFLPSSSQTLPGSADVFGSMSFGTAAVPSGYVAMGAVLPSFWGQQPLVQQQIAMGAQPPVAQVIPGAQPIAWGQPGLFPATQQAWPTVAGQFPPAAFMPTQTVMPLAAAMFQGPLTPLATVPGTNDSARSSPQSDKPRQKMGKESFKDFQMVQPPPVPSRKPDQPSLTCTSEAFSSYFNKVGVAQDTDDCDDFDISQLNLTPVTSTTPSTNSPPTPAPRQSSPSKSSASHVSDPTADDIFEEGFESPSKSEEQEAPDGSQASSTSDPFGEPSGEPSGDNISPQDGS
partner: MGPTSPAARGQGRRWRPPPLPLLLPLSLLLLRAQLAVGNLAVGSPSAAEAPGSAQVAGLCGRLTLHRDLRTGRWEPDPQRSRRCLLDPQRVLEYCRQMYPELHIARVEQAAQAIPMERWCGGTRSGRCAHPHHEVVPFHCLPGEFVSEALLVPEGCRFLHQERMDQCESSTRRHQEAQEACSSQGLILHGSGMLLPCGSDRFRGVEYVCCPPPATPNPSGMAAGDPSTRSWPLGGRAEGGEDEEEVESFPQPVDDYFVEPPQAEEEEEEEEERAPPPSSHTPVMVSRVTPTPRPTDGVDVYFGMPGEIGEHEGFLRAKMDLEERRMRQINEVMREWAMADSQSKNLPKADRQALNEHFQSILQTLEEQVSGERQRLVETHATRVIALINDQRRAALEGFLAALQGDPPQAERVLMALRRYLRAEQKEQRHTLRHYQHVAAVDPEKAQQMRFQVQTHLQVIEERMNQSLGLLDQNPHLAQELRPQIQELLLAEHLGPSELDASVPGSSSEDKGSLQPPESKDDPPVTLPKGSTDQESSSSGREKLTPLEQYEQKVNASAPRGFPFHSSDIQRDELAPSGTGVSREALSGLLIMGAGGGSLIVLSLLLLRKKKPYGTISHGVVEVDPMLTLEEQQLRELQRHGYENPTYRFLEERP

Variants of: B1
Conditions: with aplp1_mouse Aplp1, Q03157

Variant | effect of a mutation on the interaction
S114T | disrupting interaction
H136R | decreasing interaction
F158V | disrupting interaction
